{
  "source": "patent US20230407267A1",
  "about": "“USES OF PATIENT-DERIVED SCAFFOLDS” (Iscaff Pharma AB, priority 2020, published 2023)",
  "tested_on": "MCF7 cells",
  "assay": "PDS co-culture of MCF7 cells with activated T-lymphocytes, with or without PD1 blockade: viability of MCF7 cells",
  "type": "cell-based, human",
  "settings": "for % of viable MCF7 cells after 48 hours of co-culture with T-lymphocytes: MCF7 + TA+ pre-incubated with Pembr 100 μg/mL 30 min, relative to only-MCF7 control, average ± SD of 3 technical replicates",
  "protocol": "FIG. 25. PD1 blocking antibody increases the killing capacity of the T-lymphocytes in PDS-dependent manner. T-lymphocytes were activated 20 hours by exposition to CD3/CD28 Dynabeads. […] Then, the co-cultures were incubated for 48 hours. Controls including only MCF7 cells or T-lymphocytes, and 2D cultures were included. (A) Surface expression of PD1 by T-lymphocytes analyzed by FACS. (B) Graph showing the % of viable MCF7 cells after 48 hours of co-culture with T-lymphocytes in 5 different PDSs. Data are relative to their own control with only MCF7 cells and show average±SD of 3 technical replicates.\nIn addition, in FIG. 13, it is shown how differential expression of PDL1 by MCF7 cells is triggered by different breast cancer PDSs. […] First, T-lymphocytes were activated 20 hours by exposure to CD3/CD28 Dynabeads. […] The blockade of PD1 protein in the T-lymphocytes was confirmed by FACS (FIG. 25A). The T-lymphocytes, with or without PD1 blockade (Pembr) were then added to the PDS cultures, in which the MCF7 cells had been growing for 21 days. The co-cultures were incubated for 48 hours. Control samples included samples with MCF7 cells or T-lymphocytes on their own, and 2D cultures.",
  "data": [
    {"substance": "Pembrolizumab", "values": [
      {"measurement": "% of viable MCF7 cells after 48 hours of co-culture with T-lymphocytes", "setting": "2D MCF7 culture", "value": "5.5 ± 0.6", "unit": "%"},
      {"measurement": "% of viable MCF7 cells after 48 hours of co-culture with T-lymphocytes", "setting": "PDS13", "value": "31.2 ± 1.7", "unit": "%"},
      {"measurement": "killing efficacy of the T-lymphocytes after Pembrolizumab treatment", "setting": "PDS13 and PDS17, compared to without this treatment", "value": "no changes"},
      {"measurement": "killing effect of the T-lymphocytes after incubation with Pembrolizumab", "setting": "PDS14, PDS15 and PDS16, compared to T-lymphocytes without this treatment", "value": "higher"},
      {"measurement": "% of viable MCF7 cells after 48 hours of co-culture with T-lymphocytes", "setting": "PDS14", "value": "12.8 ± 2.3", "unit": "%"},
      {"measurement": "% of viable MCF7 cells after 48 hours of co-culture with T-lymphocytes", "setting": "PDS15", "value": "9.5 ± 0.6", "unit": "%"},
      {"measurement": "% of viable MCF7 cells after 48 hours of co-culture with T-lymphocytes", "setting": "PDS16", "value": "9.1 ± 2.5", "unit": "%"},
      {"measurement": "% of viable MCF7 cells after 48 hours of co-culture with T-lymphocytes", "setting": "PDS17", "value": "19.2 ± 4.3", "unit": "%"},
      {"measurement": "killing capacity of the T-lymphocytes", "setting": "in PDS-dependent manner, FIG. 25 legend", "value": "increases"}
    ]}
  ]
}
